Square brackets hold non-standard residues; d marks the D form. Primed or numbered codes have the meaning given here. * marks the point of attachment. 10Ca = carbamate linkage conjugating the peptide-PEG to paclitaxel at C10; ALK(6) = not defined here; 10Es = not defined here; Cbz = O=C(OCc1ccccc1)*; PEG(13) = PEG13 linker; Piv = CC(C)(C)C(=O)*; OBn = c1ccc(CO*)cc1; PXL = paclitaxel
Molecular target: Human Src kinase (Upstate #14-326) (human, UniProt P12931 1-536)
Experiment: cell-based or functional assay

Average src kinase activity, 0 % of parent peptide activity:
Cbz-YIYGSFK(Cbz)-{ALK(6)-10Es-PXL} (reading uncertain) [CBz-YIYGSFK(CBz)-ALK(6)-10Es-PXL]
Ac-EYIFGSFK-{PEG(13)-10Ca-PXL} [Ac-EYIFGSFK-PEG(13)-10Ca-PXL]
Ac-E(OBn)YIYGSFK(Cbz)-{PEG(13)-10Ca-PXL} [Ac-E(Bzl)YIYGSFK(CBz)-PEG(13)-10Ca-PXL]
Ac-EYI[dY]GSFK-{PEG(13)-10Ca-PXL} [Ac-EYIyGSFK-PEG(13)-10Ca-PXL]
Piv-YIFGSFR-{PEG(13)-10Ca-PXL} [Pv-YIFGSFR-PEG(13)-10Ca-PXL]

Reference: patent US20050187147A1 (published 2005)
